Target: T1, full length MO25β (human, UniProt Q9H9S4 1-337)
T1 construct: MO25β (mouse protein-25 beta), full length; plasmids are in the supplementary section; also called mouse protein-25 beta; source: E. coli BL21 (DE3) with pRARE2, purified (Glutathione-Sepharose, eluted with Prescission protease)
T1 sequence (looked up): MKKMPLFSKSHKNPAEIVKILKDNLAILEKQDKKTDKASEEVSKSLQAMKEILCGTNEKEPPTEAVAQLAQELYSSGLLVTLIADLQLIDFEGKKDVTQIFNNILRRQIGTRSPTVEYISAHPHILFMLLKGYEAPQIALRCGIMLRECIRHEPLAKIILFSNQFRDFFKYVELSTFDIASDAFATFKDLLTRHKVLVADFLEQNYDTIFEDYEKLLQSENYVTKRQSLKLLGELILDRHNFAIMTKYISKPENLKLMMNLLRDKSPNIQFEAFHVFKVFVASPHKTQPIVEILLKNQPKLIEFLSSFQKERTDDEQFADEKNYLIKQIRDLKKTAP
Test: crystal structure; MST3 (19-289) and MO25β mixed in an equimolar ratio, complex isolated on an S200 gel filtration column (20 mM Tris pH 7.5, 200 mM NaCl, 0.5 mM TCEP); sitting drop at 4 °C; two MST3:MO25β complexes in the asymmetric unit; no ATP or inhibitor
Details: both partners purified

B1: MST3 catalytic fragment (residues 19–289) (domain or fragment)
chain: not shown
notes: numbers count on: isoform b (NCBI NP_001027467.2); plasmids are described in the supplementary section; also called MST3 catalytic domain; source: E. coli BL21 (DE3) with pRARE2, purified (Ni-Sepharose, S200 gel filtration)
B1: binds.
